Results as given in patent US5804445, “High affinity mutants of nuclear factor-interleukin 6 and methods of use therefor” (Board of Regents, The University of Texas System).

How the values were obtained:
[1] = system: NF-IL6 full length (24-345); experiment: EMSA; settings: CITED Brasier and Kumar 1994; indistinguishable from TCD WT; cited from earlier work
[2] = biological target: NF-IL6 TCD WT (tryptic core domain, aa 266-345) (UniProt P17676); experiment: EMSA; settings: CITED Brasier and Kumar 1994; cited from earlier work
Sequence of NF-IL6 TCD WT (tryptic core domain, aa 266-345) (P17676 other isoform, or with tags, fused parts or gaps): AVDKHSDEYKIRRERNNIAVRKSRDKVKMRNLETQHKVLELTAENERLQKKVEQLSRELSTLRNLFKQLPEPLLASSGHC

NF-IL6 TCD V267A = NF-IL6 TCD V267A (UniProt P17676 SEQ:2-81, V267A); experiment: EMSA; binding specificity indistinguishable from the other TCD peptides; settings: tags: untagged, initiator Met removed; chain copies: 2 inferred; label: 32P fill-in; BamHI/BglII overhangs
Sequence of NF-IL6 TCD V267A (P17676 other isoform, or with tags, fused parts or gaps V267A | V267A V267A): as the sequence (P17676 other isoform, or with tags, fused parts or gaps) above, with V2A counted along it

NF-IL6 TCD S271A = NF-IL6 TCD S271A (UniProt P17676 SEQ:2-81, S271A); experiment: as above; settings: tags: untagged, initiator Met removed; chain copies: 2 inferred; label: 32P fill-in; BamHI/BglII overhangs
Sequence of NF-IL6 TCD S271A (P17676 other isoform, or with tags, fused parts or gaps S271A | S271A S271A): as the sequence (P17676 other isoform, or with tags, fused parts or gaps) above, with S6A counted along it

Molecule: APRE DNA (site used in cited work)
- Kd [1]: 0.036 µM
- Kd [2]: 0.036 µM

B1: APRE M6 (32P) (dsDNA)
DNA 1: GATCCACCACAGTTGTGATTTCACAACCTGACCA
DNA 2: TGGTCAGGTTGTGAAATCACAACTGTGGTGGATC
- binding result (NF-IL6 TCD V267A): binds
- binding result (NF-IL6 TCD S271A): binds
